Measured values taken from the supplement of paper PMC12042874.
± gives the uncertainty stated by the source.

Test: amyloid nucleation score (Sup35N fusion, yeast selection) (log enrichment); library NNK2; higher = more nucleation; inactive = no reads after selection
How it was run: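 Sup35N fusions to peptides of 20 random codons were expressed in psi-negative yeast, induced 24 hours with 100 μM copper sulfate, and grown 7 days at 30°C on medium lacking adenine and uracil. Input and output plasmid inserts were sequenced by Illumina. The nucleation score is the DiMSum log enrichment of output over input reads, centred on the mode score of non-aggregating sequences. Sequences with under 100 input reads were excluded.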

Substance | amyloid nucleation score
VEFILKVGYAFTATCPCGFW | -0.711 ± 0.79
VEGTPMFVWINWGVGKVGQS | 3.42 ± 0.051
VEHARGDRCCRQDYGVQQYK | 2.68 ± 0.23
VEHEFVQILT | -0.733 ± 0.36
VELQP | 1.18 ± 0.29
VFFVHSYND | inactive
VFGSEVSNIRRESWRSLIGQ | 0.756 ± 0.18
VFGWSVRFNYYIFMSMANDV | 3.62 ± 0.13
VFIVMYSKFLKHVYGTTLTN | inactive
VFIVYLWWTLRSWHIRVLIS | -0.52 ± 1.1
VFLTGCIPR | 0.052 ± 0.37
VFMGNSLHFRRSTVAHWRSN | 1.39 ± 0.41
VFPQLCDVSLE | -0.476 ± 1.1
VFSDWVSSKPLRSVVPCFCN | -0.496 ± 1.1
VFSEWWFTANAACSAQCYEW | 0.789 ± 0.33
VFSPFQFNFWWSFCVNFALV | 4.367 ± 0.035
VFSSNEYFPLYSVFIVSEIL | 2.47 ± 0.074
VFTKLTLSSI | 0.227 ± 1.1
VFTTLDWTSKYALIR | 0.56 ± 0.5
VFVARITSRTIIVLNESGFE | 5.21 ± 0.089
VFVERMPVGFHPFRIKIILT | 1.01 ± 0.59
VFWSGAILLLAKCIGGMSIL | -0.47 ± 0.32
VFYRASRSFKQSVRAPVGLR | -0.675 ± 0.55
VGALCGYAVVSWYSWSLSVL | 1.83 ± 0.11
VGCIYRTQDCCSRDMVCIRV | 0.071 ± 0.79
VGCPEMGLVSLGSLLRLGSA | 0.968 ± 0.39

Substance | amyloid nucleation score
VGELVMLFSKYSSVNVRGFA | 3.04 ± 0.075
VGFVCDLTGMNMGRFFKCGN | inactive
VGGIWE | -0.427 ± 0.45
VGGYDNLSILISTLQSSIFS | -0.779 ± 0.37
VGIDYV | inactive
VGIGVAERCDSRWLL | 0.886 ± 0.3
VGILSRWLRGRFTVTRWLWC | -0.945 ± 1.1
VGIRRYVRFKVLHNRVNVHE | inactive
VGLACSLS | -1.07 ± 0.78
VGSDWKSVNIFAVDEPGSTY | -1.43 ± 0.55
VGSVK | -0.394 ± 1.1
VGVIAMPLFLCMGQDSLLFV | 4.6 ± 0.061
VHARYMIFWKWTILLHS | inactive
VHFCLKH | 0.241 ± 0.22
VHNCCTVVSLRREDESVYTN | -0.146 ± 0.38
VHNVLKRVYSYGFFNKEHIY | inactive
VIAKDLMHMLPLYM | 0.37 ± 0.25
VICCEVLPSAPLSLWMNLKV | -0.469 ± 1.1
VIEIWSN | -0.531 ± 1.1
VIFVVNIFHLYWLRVC | 0.748 ± 0.58
VIIRSFR | -0.629 ± 0.34
VIKFDQISCNSFPNSLL | -0.479 ± 0.55
VISASSVAP | 0.557 ± 0.31
VISSMFNLIKYGSVWSLRGL | -0.706 ± 1
VITVTPGGHVPWVLASNGNI | -1.53 ± 0.78
VIVKAVVDIIGSN | 0.147 ± 0.76

Substance | amyloid nucleation score
VIYFHHVTYSIYPLL | 0.561 ± 0.62
VIYIWVSVPITPWESIIRGI | inactive
VKEGSLCFYMRRRTGQL | -0.627 ± 0.76
VKHVIAHTRG | 1.52 ± 0.38
VKLVCSDFKMACTSSSMSVD | 0.861 ± 0.24
VKRYDS | inactive
VKVRFFSHVNSMMSLKSIVV | inactive
VKWKLGLTWMVVIIDGVLCV | 0.963 ± 0.35
VLDAHLY | inactive
VLDCRFKCCNFTRDLT | 7.67 ± 0.043
VLDHDGVVVWNFFPHMYSDP | 4.63 ± 0.05
VLECFFVA | 0.183 ± 0.5
VLFCL | -0.806 ± 0.48
VLFDF | 0.652 ± 0.56
VLFGLKYFGSAGIQMSTCDK | 3.53 ± 0.066
VLFRELRSTTASRTGDGDMM | 4.61 ± 0.057
VLFSDA | -0.08 ± 1
VLLHCRSICGTRLALPLTGR | 1.57 ± 0.4
VLLSKGRNHSPCVHILAIIP | 0.494 ± 0.8
VLNGGRGVIRLYRVFAGKRF | -1.06 ± 0.47
VLPGKVRPFCGSMCNSFFSL | 0.157 ± 1
VLRGPS | 0.302 ± 0.56
VLRIRLQAGEGKRCE | 4.878 ± 0.044
VLRKEFVYSGCWAKRRLG | 0.165 ± 0.17
VLRLRGLRRWI | 0.638 ± 0.23
VLSPQVKRSHTFLGNDLRTD | 4.64 ± 0.072

Substance | amyloid nucleation score
VLTSFGLW | 5.206 ± 0.037
VLVMVRTFNGNILPFLAPDL | 5.714 ± 0.024
VLWTIKGFPC | 1.63 ± 0.11
VLYPMLNGGFMESLN | inactive
VLYRLKVKAQWSLS | 0.878 ± 0.28
VMAILCTNARQLEDSLRQVE | 0.452 ± 0.43
VMCIG | -0.33 ± 0.41
VMFYRRYYFKSMANLVDTFR | -0.932 ± 0.48
VMGNFRFYRSMLAFDYDEGV | 1.14 ± 0.18
VMLNWDMGDFRA | inactive
VMLRYNSYGNYLLRWHTDDA | -0.843 ± 0.44
VMQVVLGNMLMRRSQVLYNW | -0.62 ± 0.41
VMRHERTNFIYSKWWGFVEE | -0.011 ± 0.65
VMRIVMIDMKSESWSTERVS | 0.611 ± 0.57
VMSNFFVLRNGCWPMGRG | 6.124 ± 0.049
VMVCGTFANKLRLPVSIELT | 0.534 ± 0.28
VMWDRRHFMAVSSDLEDKTR | 0.438 ± 0.16
VNGHLNFAS | 0.712 ± 0.56
VNGSIARYGVCFVARCHVIS | 0.246 ± 0.45
VNIFVLLYLYVWNASIVITF | -0.221 ± 1.1
VNLTSFYLITDCTLNGQQWR | 8.654 ± 0.052
VNMIRRTINSGVYRWSFQLQ | 1.14 ± 0.54
VNSLFLVVRYGG | 5.25 ± 0.05
VNSLSGHFFVFFRLLFTTMV | -1.1 ± 0.41
VNSLYCM | -0.447 ± 1.1
VNWGNGVFAGFLWYYVRPCH | -1.03 ± 1.1

Substance | amyloid nucleation score
VNYLPWLWSMCNRVH | -0.943 ± 0.61
VNYRNLMKESLCILRQTYTL | 0.031 ± 0.65
VPGDDPSIVTVMQMYGFSLI | -0.385 ± 0.64
VPLRA | 0.002 ± 0.55
VPLTPLGENTECLSRARDIT | 0.826 ± 0.45
VPNVCAGYQPSETETYVLVR | 0.185 ± 0.65
VPPPVGVIYGIQ | 0.637 ± 0.32
VQATGADVFWDW | -0.199 ± 0.76
VQCVMSESMDELYSLVLRCP | 0.998 ± 0.28
VQDQNRREAEVSSKGGTCSW | -0.42 ± 0.35
VQDYKSVRYVGNSRIRVGGS | -0.392 ± 0.79
VQFTRSVRFTLQFCARSDKT | 6.91 ± 0.045
VQGSEKYGVVLFEY | 5.83 ± 0.094
VQIKLRQFTNKAFYTESMST | -0.053 ± 0.63
VQSTRIISCVLCLGDWLEDY | 10.19 ± 0.022
VRDLPMCNPYIRYTLFCQVS | -0.497 ± 0.45
VRFLVISINAYSVDVPHISI | -1.63 ± 1.1
VRFVINSWLTCVYERNIKLL | -0.058 ± 0.22
VRGSATEFTILVVVVVLGKR | 0.182 ± 0.42
VRGYCGFALQLVRCEWRICS | 7.272 ± 0.06
VRNFCFDYSVWYENGLTWKR | 0.527 ± 0.66
VRPMLGGSNRLHFSMVFDDD | 5.964 ± 0.059
VRSPCVDVYFPYSLVLDMCL | 0.614 ± 0.62
